Measured values from patent US20230203146A1.

Legend:
[1] = molecular target: FLAG-tagged human Ang2 (human) (UniProt O15123); test: competition ELISA: blocking of FLAG-hAng2 binding to coated hTie2-Fc
[2] = molecular target: FLAG-tagged human Ang2 (human) (UniProt O15123); test: as above; remark: listed apart in the source
[3] = molecular target: FLAG-tagged human Ang2 (human) (UniProt O15123); test: as above; remark: listed apart in the source
[4] = molecular target: FLAG-tagged mouse Ang2 (mouse) (UniProt O35608); test: competition ELISA: blocking of FLAG-mAng2 binding to coated mTie2-Fc
Sequence of FLAG-tagged mouse Ang2 (mouse) (O35608 19-496 limits assumed): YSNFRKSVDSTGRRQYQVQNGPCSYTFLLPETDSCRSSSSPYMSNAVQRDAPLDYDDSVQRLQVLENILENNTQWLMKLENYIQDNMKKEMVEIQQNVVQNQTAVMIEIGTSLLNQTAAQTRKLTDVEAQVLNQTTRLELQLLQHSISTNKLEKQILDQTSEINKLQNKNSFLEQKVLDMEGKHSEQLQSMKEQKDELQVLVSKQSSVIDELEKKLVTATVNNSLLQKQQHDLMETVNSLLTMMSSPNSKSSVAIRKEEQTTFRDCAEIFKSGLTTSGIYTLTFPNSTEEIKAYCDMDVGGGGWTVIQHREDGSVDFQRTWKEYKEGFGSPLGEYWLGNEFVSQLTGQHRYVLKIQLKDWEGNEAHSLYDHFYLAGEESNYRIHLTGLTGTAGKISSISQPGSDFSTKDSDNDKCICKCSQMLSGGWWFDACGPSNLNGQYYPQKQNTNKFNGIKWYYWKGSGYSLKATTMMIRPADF

[5] = molecular target: FLAG-tagged human Ang2 (human) (UniProt O15123); test: competition ELISA: blocking of FLAG-hAng2 binding to coated hTie2-Fc; remark: listed apart in the source
[6] = molecular target: FLAG-tagged cynomolgus Ang2 (cynomolgus); test: competition ELISA: blocking of FLAG-cAng2 binding to coated cTie2-Fc
Sequence of FLAG-tagged cynomolgus Ang2 (cynomolgus) (O15123 other isoform, or with tags, fused parts or gaps limits assumed): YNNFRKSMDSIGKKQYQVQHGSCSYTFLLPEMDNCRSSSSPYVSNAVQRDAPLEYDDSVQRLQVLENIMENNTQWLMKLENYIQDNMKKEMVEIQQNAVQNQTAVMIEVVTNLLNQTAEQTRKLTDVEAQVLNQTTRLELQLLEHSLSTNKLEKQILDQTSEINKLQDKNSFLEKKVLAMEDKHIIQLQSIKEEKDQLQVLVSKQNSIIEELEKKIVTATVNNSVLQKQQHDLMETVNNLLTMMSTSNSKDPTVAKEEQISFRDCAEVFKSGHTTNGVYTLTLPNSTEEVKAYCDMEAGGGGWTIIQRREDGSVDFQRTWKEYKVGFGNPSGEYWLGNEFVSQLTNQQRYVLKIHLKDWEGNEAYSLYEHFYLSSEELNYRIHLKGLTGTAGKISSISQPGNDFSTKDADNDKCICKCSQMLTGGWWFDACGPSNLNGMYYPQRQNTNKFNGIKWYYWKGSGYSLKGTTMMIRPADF

[7] = molecular target: FLAG-tagged mouse Ang2 (mouse) (UniProt O35608); test: competition ELISA: FLAG-mAng2 binding to coated mTie2-Fc, residual mAng2 detected with anti-FLAG-HRP
[8] = molecular target: FLAG-tagged mouse Ang2 (mouse) (UniProt O35608); test: as above; remark: listed apart in the source
[9] = molecular target: FLAG-tagged cynomolgus Ang2 (cynomolgus); test: competition ELISA: FLAG-cAng2 binding to coated cTie2-Fc, residual cAng2 detected with anti-FLAG-HRP
[10] = molecular target: FLAG-tagged human Ang2 (human) (UniProt O15123); test: competition ELISA: FLAG-hAng2 binding to coated hTie2-Fc, residual hAng2 detected with anti-FLAG-HRP
[11] = molecular target: FLAG-tagged human Ang2 (human) (UniProt O15123); test: as above; remark: listed apart in the source
[12] = molecular target: FLAG-tagged human Ang2 (human) (UniProt O15123); test: as above; remark: listed apart in the source
[13] = molecular target: FLAG-tagged human Ang2 (human) (UniProt O15123); test: as above; remark: listed apart in the source
[14] = molecular target: FLAG-tagged mouse Ang2 (mouse) (UniProt O35608); test: competition ELISA: FLAG-mAng2 binding to coated mTie2-Fc, residual mAng2 detected with anti-FLAG-HRP; remark: listed apart in the source

Sequence of FLAG-tagged human Ang2 (human) (O15123 19-496): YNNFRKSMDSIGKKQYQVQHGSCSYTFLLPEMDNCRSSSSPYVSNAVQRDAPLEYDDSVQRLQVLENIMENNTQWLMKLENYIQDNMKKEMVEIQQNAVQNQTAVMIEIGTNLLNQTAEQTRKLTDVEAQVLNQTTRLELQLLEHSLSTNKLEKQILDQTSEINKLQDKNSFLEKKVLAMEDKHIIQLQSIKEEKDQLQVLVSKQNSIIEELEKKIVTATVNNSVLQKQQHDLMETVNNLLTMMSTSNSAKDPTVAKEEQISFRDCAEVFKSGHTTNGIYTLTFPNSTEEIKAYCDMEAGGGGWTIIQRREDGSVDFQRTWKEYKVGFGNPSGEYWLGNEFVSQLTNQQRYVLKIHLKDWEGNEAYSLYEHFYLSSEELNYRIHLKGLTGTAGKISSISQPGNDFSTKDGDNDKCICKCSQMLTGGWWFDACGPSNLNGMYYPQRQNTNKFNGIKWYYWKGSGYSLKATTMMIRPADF

AMG386 (Fc fusion) was tested, and the IC50 (read off the curve) [1] was 4 pM, the IC50 (read off the curve) [2] was 5 pM and the IC50 (read off the curve) [3] was 3 pM. The IC50 (read off the curve) [4] was 6 pM, the IC50 (read off the curve) [5] was 0.5 pM and the IC50 (read off the curve) [6] was 1 pM. It also gave an IC50 (read off the curve) [7] of 7 pM, an IC50 (read off the curve) [8] of 3 pM and an IC50 (read off the curve) [9] of 10 pM. The IC50 (read off the curve) [10] was 2 pM, the IC50 (read off the curve) [11] was 3 pM and the IC50 (read off the curve) [12] was 6 pM. For the same substance, the IC50 (read off the curve) [13] was 5 pM and the IC50 (read off the curve) [14] was 4 pM.
